{
  "source": "paper PMC11843584",
  "key": {"[1]": {"biological_target": "Cleaved TEV-BID (p7 and tBID domains after TEV protease cleavage) (human) (UniProt P55957)", "sequence (P55957 whole entry, the tested form may be a part)": "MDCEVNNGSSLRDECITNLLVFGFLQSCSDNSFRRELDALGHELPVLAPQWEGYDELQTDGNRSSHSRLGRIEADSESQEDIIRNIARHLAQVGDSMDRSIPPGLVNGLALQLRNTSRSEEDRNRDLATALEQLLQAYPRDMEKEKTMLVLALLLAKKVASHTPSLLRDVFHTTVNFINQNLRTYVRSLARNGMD", "assay": "thioflavin T fluorescence; 5 μM protein with 50 μM peptide, ThT emission spectra against protein alone, peptide alone and buffer"}, "[2]": {"biological_target": "BID (BH3-interacting domain death agonist), N-terminal His6-tagged, wild type (human) (UniProt P55957)", "assay": "light-scattering titration; peptide titrated into 5 μM BID, scattered photons of a 280-nm beam; 20 mM sodium acetate pH 6.3; also at 10, 24 and 37 °C, with 0.25% or 1% OG, and in 20 mM potassium phosphate pH 5.5 to 8.0"}},
  "data": [
    {"substance": "Humanin (HN), wild-type peptide", "values": [
      {"measurement": "increase in ThT fluorescence against WT BID", "setting": "[1]", "value": 15, "unit": "%"},
      {"measurement": "fold increase in light scattering at pH 8.0", "setting": "[2]", "value": 8, "unit": "fold"},
      {"measurement": "fold increase in light scattering with 1% (w/v) OG against no detergent", "setting": "[2]", "value": 5, "unit": "fold"},
      {"measurement": "fold increase in scattered photons at 37 °C against 24 °C", "setting": "[2]", "value": 2.5, "unit": "fold"},
      {"measurement": "fold increase in scattered photons at neutral pH against pH 6.0", "setting": "[2]", "value": 4, "unit": "fold"},
      {"measurement": "protein-to-peptide ratio at the plateau of scattered photons (protein to peptide)", "setting": "[2]", "value": 2}
    ]}
  ]
}
